Reference: patent publication US20110189284A1, “Peptide Fibres” (UNIVERSITY OF BRISTOL, priority 2009, published 2011)

Key:
[1] = Particle-tracking microrheology (PTM) of gel strength versus temperature; format: physicochemical; conditions: as a function of temperature
Protocol: Gel strength was probed using particle-tracking microrheology (PTM), in order to detect any difference between the behaviour of the material at the bulk and micro scales. PTM is a non-invasive technique for measuring local viscoelasticity in complex fluids (Cicuta & Donald, 2007). PTM directly observes the motion of embedded probe particles via optical microscopy. The mean square displacement (MSD) of the particles is calculated and related to the viscoelastic modulus of the sample using a Generalised Stokes-Einstein Relation (Mason, 2000; Hasnain & Donald, 2006). […] The spatial information for individual probe particles can be used to quantify the degree of heterogeneity in the system (Houghton et al., 2008).
Experiments were carried out using a Zeiss LSM 510 confocal microscope operated in bright-field mode with a 50× objective. […] Videos were captured in uncompressed avi format at 640×480 resolution and analysed using custom-written Matlab scripts. Viscoelastic moduli were calculated by taking Laplace Transform of the MSD and using GSER. […]
To confirm and quantify the gel strengths, the storage (G′) and loss (G″) moduli were recorded as a function of temperature using both microrheology (FIG. 3) and bulk oscillatory rheology, FIG. 4a. […]

PC12 cells = test: Alamar Blue cell-proliferation assay; format: cell-based, rat; conditions: cells on collagen; peptide 0.5-2.5 mM total; 72 hours
Protocol: PC12 cells were exposed to different concentrations of hSAFAAA-W peptides (from 0.5 mM to 2.5 mM). Results are expressed as percentage of fluorescence from cells incubated with hSAFAAA-W versus no-peptide controls (100%). Mean+/−s.d. mean for n=3 experiments. […] Staurosporine was used to establish definite cell death.
Rat adrenal pheochromocytoma (PC12) cells and the subclone Neuroscreen-1 (NS-1) cells (ThermoFisher Scientific Cellomics) were used. Cells were maintained at 37° C., 5% CO2 in cell-culture medium comprising: Dulbecco's Modified Eagle Media (DMEM, Invitrogen) supplemented with 10% (v/v) horse serum (Sigma), 5% (v/v), fetal bovine serum (Sigma), 1% (v/v) penicillin/streptomycin solution (Sigma), and 2 mM L-glutamine (Invitrogen). […] The fluorescence (excitation, 560 nm; emission, 590 nm) of 100 μl samples was measured. The ratio of the fluorescence intensities to that for a no-peptide control wells was taken as a measure of cell proliferation. […] Cell morphology was followed up using Leica Microsystem Wetzlar GmbH (090-135.001) and images recorded using Canon PowerShot S70 7.1 megapixels. […]

hSAFAAQ p2 = molecular target: T1, hSAFAAQ p2; test: summary of microscopy of the mixed peptides
T1 construct: Second peptide of the control pair hSAFAAQ
T1 peptide: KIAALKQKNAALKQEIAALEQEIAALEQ

hSAFAAA p2 = molecular target: T2, hSAFAAA p2; test: complementary peptides mixed on ice at 1 mM each; vial inversion gel test
T2 construct: Second peptide of the hSAFAAA pair; also called peptide b)
T2 peptide: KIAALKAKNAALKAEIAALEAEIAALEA
Protocol: (§1) Complementary hSAF peptides were mixed on ice, and either allowed to assemble at this temperature for 30 minutes, or removed after 5 minutes and incubated for 25 minutes at 20° C. After these times, to test for gel formation, sample vials were inverted and incubated for a further 30 minutes without changing the temperature (FIG. 2). Through this simple test, hSAFAAA and hSAFQQQ both formed self-supporting gels. hSAFQQQ formed a gel at low temperature, which melted on warming; whereas, the hSAFAAA appeared to form a weak gel at low temperature that strengthened on warming.

hSAFQQQ p2 = molecular target: T3, hSAFQQQ p2; test: as above
T3 construct: Second peptide of the hSAFQQQ pair; also called peptide f)
T3 peptide: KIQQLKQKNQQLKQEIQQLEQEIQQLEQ
Protocol: as §1

## KIAALKAKNAALKAEIAALEAEIAALEA [hSAFAAA p2]
[1]
  gel state by PTM: formed a weak gel detectable by PTM

## CN[C@@H]1C[C@H]2O[C@@](C)([C@@H]1OC)n1c3ccccc3c3c4c(c5c6ccccc6n2c5c31)C(=O)NC4 [staurosporine]
PC12 cells
  cell proliferation / death versus no-peptide controls: died

## KIAALKQKIAALKQEIAALEQENAALEQ [hSAFAAQ p1]
hSAFAAQ p2
  binding result: binds

B1: hSAFAAA p1 (peptide)
peptide: KIAALKAKIAALKAEIAALEAENAALEA
notes: First peptide of the hSAFAAA pair; many copies assemble with p2 into a staggered heterodimer coiled-coil fibril; also called peptide a)
hSAFAAA p2
  binding result: binds

B2: hSAFQQQ p1 (peptide)
peptide: KIQQLKQKIQQLKQEIQQLEQENQQLEQ
notes: First peptide of the hSAFQQQ pair; also called peptide e)
hSAFQQQ p2
  binding result: binds
